Measurements as given in publication PMC5137443.

Key:
Assay in all cases: filter binding
[1] = molecular target: T1, POT1 (Homo sapiens, UniProt Q9NUX5 1-634)
T1 sequence: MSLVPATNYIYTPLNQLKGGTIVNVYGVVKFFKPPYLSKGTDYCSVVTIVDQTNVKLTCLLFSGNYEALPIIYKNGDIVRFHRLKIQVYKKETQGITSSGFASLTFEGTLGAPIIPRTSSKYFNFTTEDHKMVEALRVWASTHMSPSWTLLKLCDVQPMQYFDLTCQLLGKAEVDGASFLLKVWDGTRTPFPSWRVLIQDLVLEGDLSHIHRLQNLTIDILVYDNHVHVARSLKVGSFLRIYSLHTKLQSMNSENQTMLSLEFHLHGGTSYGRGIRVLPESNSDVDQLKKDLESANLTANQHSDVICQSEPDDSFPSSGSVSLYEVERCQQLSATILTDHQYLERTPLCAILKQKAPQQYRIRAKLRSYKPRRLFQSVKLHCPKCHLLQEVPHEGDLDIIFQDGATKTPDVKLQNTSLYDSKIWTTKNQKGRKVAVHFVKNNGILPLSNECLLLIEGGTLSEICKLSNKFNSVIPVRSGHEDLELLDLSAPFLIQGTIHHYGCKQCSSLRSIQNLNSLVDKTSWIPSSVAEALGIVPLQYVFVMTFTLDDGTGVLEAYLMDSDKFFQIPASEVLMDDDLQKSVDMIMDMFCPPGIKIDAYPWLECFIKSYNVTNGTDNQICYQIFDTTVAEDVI

[2] = molecular target: POT1;TPP1-L23 mutant (Homo sapiens;Homo sapiens, UniProt Q9NUX5;Q96AP0 1-634;3-248, |D62A;G63A;T64A;H65A)
[3] = molecular target: POT1;TPP1 (WT) (Homo sapiens;Homo sapiens, UniProt Q9NUX5;Q96AP0 1-634;3-248, |)
[4] = molecular target: POT1;TPP1-L45 mutant (Homo sapiens;Homo sapiens, UniProt Q9NUX5;Q96AP0 1-634;3-105+=AAAAA+116-248, |internal_change)

GGTTAGGGTTAG (ssDNA) [hT12wt, d(GGTTAG)2] was tested, and the Kd [1] was 38.2 ± 4.8 nM, the Kd [2] was 27.3 ± 4.2 nM and the Kd [3] was 3.8 ± 0.5 nM. For the same binder, the Kd [4] was 13.7 ± 5.5 nM.
